According to patent US20100015126A1, “Methods of Binding of Cross-Beta Structures By Chaperones” (priority 2006, published 2010):

How the values were obtained:
immobilized BiP = molecular target: T1, immobilized BiP (Homo sapiens, UniProt P11021); test: Depletion of solutions from misfolded proteins using immobilized BiP (ELISA); type: binding; conditions: BiP coated at 5 μg/ml; 1, 10, 100 μg/ml misfolded protein
T1 construct: The human BiP gene except the signal peptide encoding region was obtained from Geneart (Germany); linker […]; made in house; host or cells: HEK 293E cells, transient transfection, PABC674 vector; secreted into the medium
T1 sequence (P11021 19-654): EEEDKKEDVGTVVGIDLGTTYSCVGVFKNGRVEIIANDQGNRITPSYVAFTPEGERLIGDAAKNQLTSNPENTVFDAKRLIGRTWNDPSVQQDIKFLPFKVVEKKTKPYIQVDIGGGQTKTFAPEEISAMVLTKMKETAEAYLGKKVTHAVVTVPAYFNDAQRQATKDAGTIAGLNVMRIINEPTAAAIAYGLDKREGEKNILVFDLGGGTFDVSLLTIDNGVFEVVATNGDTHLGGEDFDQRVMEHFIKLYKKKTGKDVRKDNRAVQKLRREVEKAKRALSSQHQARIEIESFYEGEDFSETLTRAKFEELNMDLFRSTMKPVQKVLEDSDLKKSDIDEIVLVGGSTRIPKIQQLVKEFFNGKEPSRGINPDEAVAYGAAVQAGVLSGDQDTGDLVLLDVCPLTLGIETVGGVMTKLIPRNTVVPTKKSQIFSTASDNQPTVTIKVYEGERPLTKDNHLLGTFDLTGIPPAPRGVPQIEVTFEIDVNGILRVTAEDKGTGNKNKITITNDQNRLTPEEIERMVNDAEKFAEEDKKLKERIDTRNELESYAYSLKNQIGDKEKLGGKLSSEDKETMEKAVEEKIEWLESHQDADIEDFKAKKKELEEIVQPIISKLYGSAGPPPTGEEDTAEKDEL
Procedure: We analysed whether recombinant human BiP with a C-terminal FLAG-tag and His-tag can be applied for depleting solutions from misfolded proteins comprising crossbeta structure.
BiP was coated at a concentration of 5 μg/ml at Greiner Microlon high-binding plates, for 1 h at room temperature with motion. As a negative control buffer was coated. ELISAs were performed essentially as described before. […] All binding buffers were PBS/0.1% (v/v) Tween20. Binding of dOVA was assayed using monoclonal anti-chicken egg albumin antibody (Sigma, A6075, 1:10.000 dilution) and RAMPO (Dako Cytomation, P0260, 1:3.000). […] Background signals obtained with buffer coated wells that were subsequently overlayed with protein solutions (see below), were subtracted from signals obtained with wells with coated BiP.

human BiP = molecular target: T2, human BiP (Homo sapiens, UniProt P11021); test: Competition ELISA: BiP binding to misfolded proteins under influence of crossbeta binding compounds; conditions: fixed sub-optimal BiP concentration
T2 construct: The human BiP gene except the signal peptide encoding region was obtained from Geneart (Germany); linker […]; made in house; host or cells: HEK 293E cells, transient transfection, PABC674 vector; secreted into the medium
T2 sequence (P11021 19-654): as above
Procedure: Binding of chaperones to immobilized (misfolded) protein ligands was determined using an enzyme linked immuno sorbent assay (ELISA) approach. For this purpose 50 μl/well of potential ligands at indicated concentrations or coat buffer only for control and background measurement purposes, were coated overnight at 4° C. or coated for 1 h at room temperature, with motion, in 50 mM NaHCO3 pH 9.6 (coat buffer). In general, ligands were coated at 5 μg/ml, unless stated otherwise. For example, BiP binding peptides 6BB# and oxLDL were coated at 50 μg/ml. Native haemoglobin (Sigma-Aldrich, H7379), albumin, IgIV Gammagard and ovalbumin controls were prepared from lyophilized stocks. The controls were prepared by dissolving lyophilized proteins at 1 mg/ml in PBS upon resuspending by pipetting, followed by a 30 minutes period at the roller device, at room temperature. The protein solutions were centrifuged for 10 minutes at 16,000*g and diluted in coat buffer. After coating the plates were washed at least three times with 50 mM Tris-HCl pH 7.3, 150 mM NaCl, 0.1% v/v Tween20, and blocked with Blocking reagent (Roche Diagnostics, Almere, The Netherlands; 11112589001), for 1 h at room temperature, with motion. Plates were washed three times and incubated in triplicate with indicated chaperone dilution series, at 50 μl/well, for 1 h at room temperature, with constant motion. For HSP90, 5 mM DTT is incorporated in the binding buffer (PBS/0.1% Tween20) to avoid unwanted disulfide bond formation of the HSP90. […] After four wash cycles, secondary antibodies were added to the wells when required, 50 μl/well, for 45′ at room temperature, with motion. RAMPO and SWARPO were used at 3000 times dilution. […] In a second experiment with more immobilized misfolded proteins and controls, the detection of bound HSP90 with the mix of two anti-HSP90 antibodies was achieved by mixing 1:1500 SWARPO with 1:3000 RAMPO. After 5 washes with wash buffer followed by two washes with PBS, binding of antibodies was assessed. […] Plates were read at 450 nm. Triplicates were averaged and standard deviations calculated. […] Subsequently, sub-optimal concentrations of chaperones for binding to misfolded protein ligands are determined, and these concentrations are used for inhibition studies.
In a subsequent study we analysed whether BiP interacts directly with the crossbeta structure, by performing ELISA binding studies with a fixed sub-optimal concentration of BiP and concentration series of crossbeta binding compounds. […]

[1] = Transmission electron microscopy (TEM); type: physicochemical; conditions: magnification 10K
Procedure: Transmission Electron Microscopy (TEM)
TEM images were collected using a Jeol 1200 EX transmission electron microscope (Jeol Ltd., Tokyo, Japan) at an excitation voltage of 80 kV. For each sample, the formvar and carbon-coated side of a 100-mesh copper or nickel grid was positioned on a 5 μl drop of protein solution for 5 minutes. Afterwards, it was positioned on a 100 μl drop of PBS for 2 minutes, followed by three 2-minute incubations with a 100 μl drop of distilled water. The grids were then stained for 2 minutes with a 100 μl drop of 2% (m/v) methylcellulose with 0.4% uranyl acetate pH 4. Excess fluid was removed by streaking the side of the grids over filter paper, and the grids were subsequently dried under a lamp. Samples were analysed at a magnification of 10K.

- Extraction from solution by immobilized BiP (immobilized BiP): can be extracted
- Influence of K2P tPA on interaction of BiP with misfolded protein (human BiP; 10 mM ε-amino caproic acid): −
B1: dOVA standard: heat-denatured chicken ovalbumin (protein)
chain: GSIGAASMEFCFDVFKELKVHHANENIFYCPIAIMSALAMVYLGAKDSTRTQINKVVRFDKLPGFGDSIEAQCGTSVNVHSSLRDILNQITKPNDVYSFSLASRLYAEERYPILPEYLQCVKELYRGGLEPINFQTAADQARELINSWVESQTNGIIRNVLQPSSVDSQTAMVLVNAIVFKGLWEKAFKDEDTQAMPFRVTEQESKPVQMMYQIGLFRVASMASEKMKILELPFASGTMSMLVLLPDEVSGLEQLESIINFEKLTEWTSSNVMEERKIKVYLPRMKMEEKYNLTSVLMAMGITDVFSSSANLSGISSAESLKISQAVHAAHAEINEAGREVVGSAEAGVDAASVSEEFRADHPFLFCIKHIATNAVLFFGRCVSP
- Influence of tPA on interaction of BiP with misfolded protein (human BiP; 10 mM ε-amino caproic acid): ↓ (a ↓ sign refers to inhibited abolished binding of BiP)
- Influence of Congo red on interaction of BiP with misfolded protein (human BiP; concentration series of Congo red): ↓ (a ↓ sign refers to inhibited abolished binding of BiP)
- Influence of ThS on interaction of BiP with misfolded protein (human BiP; concentration series of ThS): ↓ (a ↓ sign refers to inhibited abolished binding of BiP)
- Appearance on TEM images [1]: aggregates into non-fibrillar multimers
